# IntAct's records for PubMed 21119616
# B1: Retinoblastoma-associated protein (Homo sapiens), P06400 (parent)
# chain: MPPKTPRKTAATAAAAAAEPPAPPPPPPPEEDPEQDSGPEDLPLVRLEFEETEEPDFTALCQKLKIPDHVRERAWLTWEKVSSVDGVLGGYIQKKKELWGICIFIAAVDLDEMSFTFTELQKNIEISVHKFFNLLKEIDTSTKVDNAMSRLLKKYDVLFALFSKLERTCELIYLTQPSSSISTEINSALVLKVSWITFLLAKGEVLQMEDDLVISFQLMLCVLDYFIKLSPPMLLKEPYKTAVIPINGSPRTPRRGQNRSARIAKQLENDTRIIEVLCKEHECNIDEVKNVYFKNFIPFMNSLGLVTSNGLPEVENLSKRYEEIYLKNKDLDARLFLDHDKTLQTDSIDSFETQRTPRKSNLDEEVNVIPPHTPVRTVMNTIQQLMMILNSASDQPSENLISYFNNCTVNPKESILKRVKDIGYIFKEKFAKAVGQGCVEIGSQRYKLGVRLYYRVMESMLKSEEERLSIQNFSKLLNDNIFHMSLLACALEVVMATYSRSTSQNLDSGTDLSFPWILNVLNLKAFDFYKVIESFIKAEGNLTREMIKHLERCEHRIMESLAWLSDSPLFDLIKQSKDREGPTDHLESACPLNLPLQNNHTAADMYLSPVRSPKKKGSTTRVNSTANAETQATSAFQTQKPLKSTSLSLFYKKVYRLAYLRLNTLCERLLSEHPELEHIIWTLFQHTLQNEYELMRDRHLDQIMMCSMYGICKVKNIDLKFKIIVTAYKDLPHAVQETFKRVLIKEEEYDSIIVFYNSVFMQRLKTNILQYASTRPPTLSPIPHIPRSPYKFPSSPLRIPGGNIYISPLKSPYKISEGLPTPTKMTPRSRILVSIGESFGTSEKFQKINQMVCNSDRVLKRSAEGSNPPKPLKKLRFDIEGSDEADGSKHLPGESKFQQKLAEMTSTRTRMQKQKMNDSMDTSNKEEK
# partner: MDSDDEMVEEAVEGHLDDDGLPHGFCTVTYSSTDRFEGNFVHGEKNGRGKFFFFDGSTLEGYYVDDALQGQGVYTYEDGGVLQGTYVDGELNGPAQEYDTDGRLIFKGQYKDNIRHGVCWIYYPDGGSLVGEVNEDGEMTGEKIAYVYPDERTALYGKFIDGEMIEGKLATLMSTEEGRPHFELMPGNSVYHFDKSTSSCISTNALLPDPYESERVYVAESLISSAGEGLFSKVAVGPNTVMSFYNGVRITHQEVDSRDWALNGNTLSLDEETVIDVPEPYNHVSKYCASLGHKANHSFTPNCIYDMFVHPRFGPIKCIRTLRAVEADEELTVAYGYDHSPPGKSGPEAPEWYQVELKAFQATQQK
# Variants of: B1
# Conditions: with setd7_human SETD7, Q8WTS6
row,effect of a mutation on the interaction,Variant
1,disrupting interaction,K810R
